According to article PMC4823748, “Production of FAME biodiesel in E. coli by direct methylation with an insect enzyme” (Scientific Reports, 2016):

Substrate: CCCCCCCCCCCC(=O)O
Test: MTAN/LuxS-coupled DTNB colorimetric methyltransferase assay
Format: biochemical, Drosophila melanogaster
Settings: 500 μM SAM, 50 mM potassium phosphate pH 8.0, 30 °C, 3 μM enzyme, 5–200 μM lauric acid

B1: DmJHAMT (Drosophila melanogaster) (protein)
chain: MNQASLYQHANQVQRHDAKLILDEFASTMQWRSDGEDALLDVGSGSGNVLMDFVKPLLPIRGQLVGTDISSQMVHYASKHYQREERTRFQVLDIGCERLPEELSGRFDHVTSFYCLHWVQNLKGALGNIYNLLKPEGGDCLLAFLASNPVYEVYKILKTNDKWSTFMQDVENFISPLHYSLSPGEEFSQLLNDVGFVQHNVEIRNEVFVYEGVRTLKDNVKAICPFLERMPADLHEQFLDDFIDIVISMNLQQGENNEDQKFLSPYKLVVAYARKTPEFVNNVFLEPTHQNLVKGIN
notes: primers encode N-terminus MNQASLYQH and C-terminus QNLVKGIN-stop
Km: 59 µM
kcat: 0.15 min⁻¹
